Laboratory results published in US20180155433A1 (GAMAMABS PHARMA, published 2018).

Assays:
[1] = biological target: T1, human HER3-Fc (recombinant HER3 extracellular domain Fc fusion, R&D systems) (human, UniProt P21860 20-643); test: ELISA, HER3-Fc coated at 50 ng per well, GMB301 from 3.3 nM to 6.5 pM, HRP anti-human F(ab')2 detection
T1 construct: extracellular domain; Bought reagent (R&D Systems); Coated on plates at 50 ng per well; not shown: Fc part of the bought fusion (R&D Systems)
Experimental: GMB301 was incubated for 1 hour at 37° C. in Maxisorp® plates (Nunc) coated wells with 50 ng human HER3-Fc (recombinant HER3 extracellular domain Fc fusion, R&D systems).
Bound GMB301 antibody were detected by a conjugated HRP-F(ab′)2 goat anti human IgG F(ab′)2 specific (Interchim). After two hours at 37° C. and three washes with PBS-Tween₂₀ 0.5%, TMB (3,3,5,5-tetramethylbenzidine, Sigma) was used as substrate for detecting HRP activity and 1M H₂SO₄ was added to stop the reaction and plate was read at 450 nm.

[2] = biological target: T2, Recombinant human HER3 extracellular domain (ECD) (human, UniProt P21860 20-643); test: ELISA, recombinant human HER3 ECD coated at 50 ng/well, antibody from 3 nM to 6.5 pM, four-parameter fit
T2 construct: extracellular domain; Bought from R&D Systems; also called recombinant human HER3 ECD; HER3 receptor
Experimental: Nunc Maxisorp plates were coated with 50 ng/well recombinant human HER3 ECD for 16 hours at 4° C. and were blocked with 2% BSA in PBS. Anti-HER3 antibodies GMB301 and H4B-121-emb were serially diluted from 0.5 μg/ml to 1 ng/ml (3 nM to 6.5 pM) and incubated 1 hour at 37° C.

T1 sequence (P21860 20-643): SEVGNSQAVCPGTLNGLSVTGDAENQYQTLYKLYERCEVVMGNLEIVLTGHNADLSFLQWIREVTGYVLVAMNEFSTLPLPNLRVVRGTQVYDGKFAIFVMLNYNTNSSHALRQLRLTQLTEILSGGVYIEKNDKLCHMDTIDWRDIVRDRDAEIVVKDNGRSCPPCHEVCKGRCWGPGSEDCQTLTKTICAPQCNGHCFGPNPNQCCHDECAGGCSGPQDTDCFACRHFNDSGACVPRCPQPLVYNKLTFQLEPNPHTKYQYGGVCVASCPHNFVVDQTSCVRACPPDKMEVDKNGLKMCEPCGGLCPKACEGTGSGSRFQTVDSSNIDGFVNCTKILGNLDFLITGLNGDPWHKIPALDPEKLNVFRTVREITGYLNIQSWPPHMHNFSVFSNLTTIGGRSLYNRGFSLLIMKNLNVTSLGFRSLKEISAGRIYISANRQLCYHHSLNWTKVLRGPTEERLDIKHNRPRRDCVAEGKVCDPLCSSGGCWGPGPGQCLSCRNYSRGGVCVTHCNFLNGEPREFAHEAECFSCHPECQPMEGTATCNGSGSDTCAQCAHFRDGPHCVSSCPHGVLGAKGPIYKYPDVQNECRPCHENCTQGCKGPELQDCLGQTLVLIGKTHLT
T2 sequence (P21860 20-643): as above

B1: GMB301 (chimeric low-fucose anti-human HER3 antibody) (antibody, human IgG1, kappa, V domains shown)
VH: EVKLVESGGGLVQPGGSLKLSCAASGFTFSSYTMSWVRQTPEKRLEWVAYISDGGGVTYYPDTIKGRFTISRDNAKNTLYLQMSSLKSEDTAMYYCARDRYGLFAYWGQGTLVTVSA
VL: DIVMTQSQKFMSTSVGDRVSITCKASQNVGIAVAWYQQKPGQSPKLLIYSASNRYTGVPDRFTGSGSGTDFTLTISNMQSEDLADYFCQQYSNYPYTFGGGTKLEIKR
modifications: low-fucose N-glycan (produced in YB2/0 cells)
notes: also called mAb GMB301; low-fucose chimerized antibody GMB301
[1]
  EC50: 0.19 nM
[2]
  EC50: 0.19 nM
